Experimental data: patent US20190112392A1 (Ablynx, published 2019)

Legend:
[1] = molecular target: T1, soluble recombinant cynomolgus TCR alpha/beta-zipper protein (cynomolgus/rhesus monkey); experiment: ELISA, coated soluble cynomolgus TCR-zipper
T1 construct: Made in house in CHOK1SV cells; extracellular domains fused to a zipper protein; also called cynoTCR-zipper protein; not shown: zipper protein (O'Shea et al. 1993)
T1 V domain 1: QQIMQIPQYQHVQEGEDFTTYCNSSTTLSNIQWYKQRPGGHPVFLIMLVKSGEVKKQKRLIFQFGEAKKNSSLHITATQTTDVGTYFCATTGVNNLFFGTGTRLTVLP
T1 V domain 2: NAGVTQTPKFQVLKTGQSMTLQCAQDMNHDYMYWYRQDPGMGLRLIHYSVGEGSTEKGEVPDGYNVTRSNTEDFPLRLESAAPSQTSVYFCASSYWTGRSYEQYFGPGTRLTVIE
Procedure: Quality of the TCR α/β zipper proteins was assessed in an ELISA binding assay. Maxisorp 96-well ELISA plates (Nunc) were coated with 2 μg/mL soluble recombinant human TCR α/β (2XN9)-zipper protein or soluble recombinant cynomolgus TCR α/β-zipper protein. After an overnight incubation, plates were washed and blocked with PBS+1% casein for 1 h at room temperature. Next, plates were incubated with serial dilutions of either a functional flag tagged Nanobody or the functional mouse IgG anti-non-human primate/Rat TCRα/β antibody, clone R73 (eBioscience 16-5960) for 1 h at room temperature while shaking, washed again and incubated with mouse anti-flag-HRP (Sigma, #A8592) respectively rabbit anti-mouse-HRP (Dako, # P0260). After 1 h, TMB One Solution (Promega #G7431) was added. The reaction was stopped with 2M H₂SO₄ and the dose dependent binding was determined by measuring the OD at 450 nm using the Tecan sunrise 4 (FIG. 2).
Binding of purified monovalent anti-TCR Nanobodies to soluble recombinant cynomolgus TCR c/3 protein was evaluated in ELISA (as described in Example 1.2) using 2 μg/ml directly coated recombinant soluble cynomolgus TCR-α/β zipper protein.

[2] = molecular target: T2, human CD3 expressed on HEK293H cells (human, UniProt P04234 22-171; P09693 23-182; P07766 23-207; P20963 22-164); experiment: flow cytometry, HEK293H human CD3 cells
T2 construct: also called HEK293H human CD3; HEK293H CD3
Procedure: (§1) Binding of purified monovalent anti-TCR Nanobodies to human TCR(2IAN)/CD3 expressed on HEK293H cells was evaluated and compared with the binding to HEK293H cells transfected with human CD3 in flow cytometry, as outlined in Example 5. Dilution series of anti-TCR Nanobodies starting from 1 μM were applied to the cells. The parental HEK293H cell line was included as TCR/CD3 negative cell line.
Nanobodies clearly bound to human TCR(2IAN)/CD3 expressed on HEK293H but not to the HEK293H cells transfected with human CD3 only, nor to the HEK293H parental cell line. The EC50 values obtained from the dose response curve are depicted in Table C-2.

[3] = molecular target: T3, T cell receptor alpha/beta on purified primary human T cells (human, UniProt P01848 1-140; P01850 1-176); experiment: flow cytometry, purified primary human T cells
T3 construct: whole, on cells; also called human primary T cells
T3 TCR alpha (looked up): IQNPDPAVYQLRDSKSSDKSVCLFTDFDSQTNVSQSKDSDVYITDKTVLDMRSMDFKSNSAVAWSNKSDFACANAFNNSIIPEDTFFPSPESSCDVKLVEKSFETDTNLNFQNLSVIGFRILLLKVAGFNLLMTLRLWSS
T3 TCR beta (looked up): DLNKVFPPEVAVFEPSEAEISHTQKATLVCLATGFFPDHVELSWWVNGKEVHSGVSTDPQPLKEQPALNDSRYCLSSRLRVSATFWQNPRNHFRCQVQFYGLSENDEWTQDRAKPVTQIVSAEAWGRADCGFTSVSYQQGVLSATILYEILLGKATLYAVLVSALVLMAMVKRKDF
Procedure: Periplasmic extracts were screened for cell expressed TCR/CD3 binding using human TCR/CD3 transfected CHO-K1 or HEK293H cells and the respective CHO-K1 or HEK293H reference cell line in a mixed cell line setup. To this end, a large batch of the reference cell lines were labelled with 8 μM PKH26 and frozen. 5×10⁴ PKH labelled reference cells were mixed with 5×10⁴ target cells and incubated with periplasmic extracts for 30 min at 4′C, and washed 3 times. […] Samples were washed, resuspended in FACS Buffer (D-PBS from Gibco, with 10% FBS from Sigma and 0.05% sodium azide from Merck) and then analysed via a BD FACSArray. […] In this gate, 20,000 cells were counted during acquisition. Based on PKH26-SSC distribution, the PKH labelled parental population and the human TCR/CD3 unlabelled target population was selected. For these 2 populations the mean APC value was calculated.
Binding of purified monovalent anti-TCR Nanobodies to human TCR(2XN9)/CD3 expressed on CHO-K1 cells and to purified primary human T cells was evaluated in flow cytometry as outlined in Example 4.1.

[4] = molecular target: T2, human CD3 expressed on HEK293H cells; experiment: flow cytometry on HEK293H human CD3 cells, MCF
Procedure: as §1

[5] = molecular target: T4, EGFR on cells (UniProt P00533 25-1210, limits assumed); experiment: cell-based or functional assay
[6] = molecular target: T4, EGFR on cells; experiment: flow cytometry, HER14 cells
[7] = molecular target: T4, EGFR on cells; experiment: flow cytometry, LS174T cells; set-up: Top: unit not given here
[8] = molecular target: T4, EGFR on cells; experiment: flow cytometry, LoVo cells; set-up: Top: unit not given here
[9] = molecular target: T4, EGFR on cells; experiment: cell-based or functional assay; remark: listed apart in the source
[10] = molecular target: T cell receptor alpha/beta on primary cynomolgus T cells (cynomolgus); experiment: cell-based or functional assay
[11] = molecular target: HER2 on cells (human, UniProt P04626 23-1255); experiment: cell-based or functional assay

T2 sequence (P04234 22-171 limits assumed, chain 1 of 4): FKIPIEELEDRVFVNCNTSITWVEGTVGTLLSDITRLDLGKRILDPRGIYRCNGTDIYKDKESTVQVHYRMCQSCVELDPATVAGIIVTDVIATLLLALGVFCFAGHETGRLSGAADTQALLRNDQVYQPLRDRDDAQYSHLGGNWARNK
T2 sequence (P09693 23-182 limits assumed, chain 2 of 4): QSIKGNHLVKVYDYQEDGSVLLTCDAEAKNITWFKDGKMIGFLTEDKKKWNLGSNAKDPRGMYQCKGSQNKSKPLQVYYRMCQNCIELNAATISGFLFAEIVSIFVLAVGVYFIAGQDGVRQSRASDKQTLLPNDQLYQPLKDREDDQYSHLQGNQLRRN
T2 sequence (P07766 23-207 limits assumed, chain 3 of 4): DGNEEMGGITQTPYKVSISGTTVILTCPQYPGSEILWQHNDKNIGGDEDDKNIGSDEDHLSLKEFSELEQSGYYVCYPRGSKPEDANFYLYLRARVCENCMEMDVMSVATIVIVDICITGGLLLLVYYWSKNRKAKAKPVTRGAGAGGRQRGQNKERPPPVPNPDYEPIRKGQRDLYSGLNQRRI
T2 sequence (P20963 22-164 limits assumed, chain 4 of 4): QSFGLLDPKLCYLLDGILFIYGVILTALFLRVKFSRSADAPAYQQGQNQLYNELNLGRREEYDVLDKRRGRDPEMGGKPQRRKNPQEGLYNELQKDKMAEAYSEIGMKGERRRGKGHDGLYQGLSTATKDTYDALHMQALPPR

B1: T0170068G05 (VHH)
VHH: VQLVEESGGGLVQPGGSLRLSCITSGETFKINIWGWYRQAPGKQRELVASLTIGGATNYADSVKGRFTISEDSAKNTVYLQMNSLKPEDTAVYFCNAKSRIYPYDYWGRGTQVTVSS
notes: Monovalent anti-TCR Nanobody, cluster B; expressed in E. coli as triple Flag, His6-tagged protein; also called T0170PMP068G05; not shown: C-terminal triple Flag-His6 tag of the E. coli-made monovalent Nanobody
B1 was tested, and the EC50 [1] was 87 nM, the “MCF at 1 µM” value [2] was 240 MCF and the EC50 [3] was greater than 100 nM. B1: no binding (tested: 1e-6 M) [4].

B2: T017000110 (other)
chain: EVQLVESGGGLVQAGGSLRLSCAASGRTFSSYVMGWFRQATGKEREFVATIAWDSGSTYYADSVKGRFTISRDNAKNTVHLQMNSLKPEDTAVYYCAASYNVYYNNYYYPISRDEYDYWGQGTLVTVSSGGGGSGGGGSGGGGSGGGGSGGGGSGGGGSGGGGSEVQLVESGGGSVQAGGSLRLSCAASGYTIGPYCMGWFRQAPGKEREGVAAINMGGGITYYADSVKGRFTISQDNAKNTVYLLMNSLEPEDTAIYYCAADSTIYASYYECGHGLSTGGYGYDSWGQGTLVTVSSGGGGSGGGGSGGGGSGGGGSGGGGSGGGGSGGGGSEVQLVESGGGLVQPGGSLRLSCVASGDVHKINFLGWYRQAPGKEREKVAHISIGDQTDYADSAKGRFTISRDESKNMVYLQMNSLKPEDTAVYFCRAFSRIYPYDYWGQGTLVTVSSGAADYKDHDGDYKDHDIDYKDDDDKGAAHHHHHH
notes: EGFR x irrelevant (anti-egg lysozyme) x TCR Nanobody construct; entry includes the FLAG3-HIS6 tag; also called EGFR038G07-35GS-cAbLys3(D1E,Q5V,A6E,Q108L)-35GS-T0170056G05-FLAG3-HIS6
B2 was tested, and the “IC50, xCELLigence human T cell mediated killing of LS174T cells, E:T 15, 30-40 h” value [5] was 26 nM, the “IC50, xCELLigence human T cell mediated killing of LoVo cells, E:T 15, 30-40 h” value [5] was 1.5 nM and the EC50 [6] was 7.3 nM. It also gave a Top [6] of 165000, an EC50 [7] of 6.3 nM and a Top [7] of 40800. For the same binder, the EC50 [8] was 2.4 nM, the Top [8] was 95900 and the “IC50, xCELLigence human T cell mediated killing of HER14 cells, E:T 15, 50-60 h” value [9] was 0.42 nM. For the same binder, the “IC50, xCELLigence human T cell mediated killing of LS174T cells, E:T 15, 50-60 h” value [9] was 8.9 nM and the “IC50, xCELLigence human T cell mediated killing of LoVo cells, E:T 15, 50-60 h” value [9] was 0.6 nM.

B3: T017000103 (bispecific antibody)
chain: EVQLVESGGGLVQPGGSLRLSCVASGDVHKINFLGWYRQAPGKEREKVAHISIGDQTDYADSAKGRFTISRDESKNMVYLQMNSLKPEDTAVYFCRAFSRIYPYDYWGQGTLVTVSSGGGGSGGGGSGGGGSGGGGSGGGGSGGGGSGGGGSEVQLVESGGGLVQAGGSLRLSCAASGITFSINTMGWYRQAPGKQRELVALISSIGDTYYADSVKGRFTISRDNAKNTVYLQMNSLKPEDTAVYYCKRFRTAAQGTDYWGQGTLVTVSSGAADYKDHDGDYKDHDIDYKDDDDKGAAHHHHHH
B3 was tested, and the “IC50, xCELLigence cynomolgus T cell mediated SKBR3 killing assay” value [10] was 0.012 nM, the “IC50, xCELLigence based cytotoxicity (readout 18 h), MCF-7, human T cells, E/T 15:1” value [11] was 0.059 nM and the “IC50, xCELLigence based cytotoxicity (readout 18 h), SKBR3, human T cells, E/T 15:1” value [11] was 0.0038 nM.
